In paper PMC6642826:
Blank lines part the entries; values can stand above or below the molecule they belong to.

Tests used:
[1] = biological target: RelA homodimer as used for SPR (murine) (UniProt Q04207); assay: SPR
[2] = biological target: RelA-p50 heterodimer as used for SPR (murine) (UniProt Q04207); assay: SPR
[3] = biological target: Oregon Green 488-labelled RelA dimerization domain homodimer (murine) (UniProt Q04207); assay: fluorescence polarisation
[4] = biological target: Oregon Green 488-labelled RelA(19–321)-p50(39–350) heterodimer (murine) (UniProt Q04207); assay: fluorescence polarisation
[5] = biological target: Oregon Green 488-labelled p50(39–350)-cRel(1–294) heterodimer (murine) (UniProt P25799); assay: fluorescence polarisation
RelA (Mus musculus) = RelA (Mus musculus) (UniProt Q04207); conditions: cited from earlier work
[6] = biological target: labelled p50(39–350) homodimer (murine) (UniProt P25799); assay: fluorescence polarisation

Kd [1]: 0.07 nM
Kd [2]: 1.1 nM
Kd [3]: 0.072 nM
Kd [4]: 0.89 nM
Kd [5]: 0.92 nM
Molecule: IKBβ(50–359) (domain or fragment)

Molecule: RelA (from UniProt Q04207)
Kd (RelA (Mus musculus)): 800 nM

Kd [1]: 0.054 nM
Kd [3]: 0.28 nM
Molecule: IKBα(67–287) (from UniProt P25963 67-287) (domain or fragment)

Kd [6]: 0.81 nM
B1: (His)6-IKBε(40–364) (domain or fragment)
chain: SSQSGCPQPWRHAPETHKEPEKEDADGERADSTYASSSLTESFPLLERPEAKDPSPPAPGSPLPPAGVLSPQQLEALTYISEDGDTLLHLAVIHEAPSVLFCCLAFLPQEVLDIQNNLYQTALHLAVHLDQPDVVRALVLKGASRILQDQHGDTALHVACRRQNLACACCLLEEQPEPGRQLSHPLDLQLKNWQGLACLHIATLQRNQPLIELLLQNGADIDVQEGTSGKTALHLAVETQERSLVQFLLQAGARVDARMLNGCTPLHLAAGRGLNSISSTLCEAGADSLLLNVEDETPQDLAEDLLSYLPFDDLKISGKPLLCTD
